Results on six molecules are retold here after doi:10.1101/2025.03.20.644318, “Functional Spectrum of USP7 Pathogenic Variants in Hao-Fountain Syndrome: Insights into the Enzyme’s Activity, Stability, and Allosteric Modulation” (bioRxiv, 2025).

The test concerns the target T1, ubiquitin (UniProt P0CG48 1-76).
T1 construct: also called unlabeled ubiquitin
Description: NMR titration; unlabeled ubiquitin added stepwise to ~250 uM 15N-labeled USP7 catalytic domain up to 1:4 molar excess; 2D 1H-15N TROSY, six titration points, 800 MHz, 30 °C; 20 mM Tris pH 7.5, 100 mM NaCl, 2 mM DTT, 10% D2O; KD from nonlinear fit of total chemical shift changes against ubiquitin concentration. Conditions: both partners purified.

B1: USP7 catalytic domain (residues 207-560), wild type (domain or fragment, human, UniProt Q93009 207-560, looked up)
chain: SKKHTGYVGLKNQGATCYMNSLLQTLFFTNQLRKAVYMMPTEGDDSSKSVPLALQRVFYELQHSDKPVGTKKLTKSFGWETLDSFMQHDVQELCRVLLDNVENKMKGTCVEGTIPKLFRGKMVSYIQCKEVDYRSDRREDYYDIQLSIKGKKNIFESFVDYVAVEQLDGDNKYDAGEHGLQEAEKGVKFLTLPPVLHLQLMRFMYDPQTDQNIKINDRFEFPEQLPLDEFLQKTDPKDPANYILHAVLVHSGDNHGGHYVVYLNPKGDGKWCKFDDDVVSRCTKEEAIEHNYGGHDDDLSVRHCTNAYMLVYIRESKLSEVLQAVTDHDIPQQLVERLQEEKRIEAQKRKERQE
modifications: 15N-labeled
notes: also called WT; 15N USP7 (WT); source: E. coli BL21 (DE3), M9 minimal media with 15NH4Cl, purified (TALON cobalt resin, thrombin cleavage, SEC); not shown: His6, N-terminal, cleaved
Turning to B1, the dissociation constant (Kd) amounted to 160 ± 24.2 µM.

B2: USP7 catalytic domain (residues 207-560) G392A (domain or fragment, human, UniProt Q93009 207-560, looked up)
chain: SKKHTGYVGLKNQGATCYMNSLLQTLFFTNQLRKAVYMMPTEGDDSSKSVPLALQRVFYELQHSDKPVGTKKLTKSFGWETLDSFMQHDVQELCRVLLDNVENKMKGTCVEGTIPKLFRGKMVSYIQCKEVDYRSDRREDYYDIQLSIKGKKNIFESFVDYVAVEQLDGDNKYDAGEHGLQEAEKAVKFLTLPPVLHLQLMRFMYDPQTDQNIKINDRFEFPEQLPLDEFLQKTDPKDPANYILHAVLVHSGDNHGGHYVVYLNPKGDGKWCKFDDDVVSRCTKEEAIEHNYGGHDDDLSVRHCTNAYMLVYIRESKLSEVLQAVTDHDIPQQLVERLQEEKRIEAQKRKERQE
modifications: 15N-labeled
notes: patient-derived variant; also called 15N USP7 (G392A); G392A USP7 catalytic domain; source: E. coli BL21 (DE3), M9 minimal media with 15NH4Cl, purified (TALON cobalt resin, thrombin cleavage, SEC); not shown: His6, N-terminal, cleaved
For B2, the Kd was 77.2 ± 4.7 µM.

B3: USP7 catalytic domain (residues 207-560) P273H (domain or fragment, human, UniProt Q93009 207-560, looked up)
chain: SKKHTGYVGLKNQGATCYMNSLLQTLFFTNQLRKAVYMMPTEGDDSSKSVPLALQRVFYELQHSDKHVGTKKLTKSFGWETLDSFMQHDVQELCRVLLDNVENKMKGTCVEGTIPKLFRGKMVSYIQCKEVDYRSDRREDYYDIQLSIKGKKNIFESFVDYVAVEQLDGDNKYDAGEHGLQEAEKGVKFLTLPPVLHLQLMRFMYDPQTDQNIKINDRFEFPEQLPLDEFLQKTDPKDPANYILHAVLVHSGDNHGGHYVVYLNPKGDGKWCKFDDDVVSRCTKEEAIEHNYGGHDDDLSVRHCTNAYMLVYIRESKLSEVLQAVTDHDIPQQLVERLQEEKRIEAQKRKERQE
modifications: 15N-labeled
notes: patient-derived variant; also called 15N USP7 (P273H); P273H USP7 catalytic domain; source: E. coli BL21 (DE3), M9 minimal media with 15NH4Cl, purified (TALON cobalt resin, thrombin cleavage, SEC); not shown: His6, N-terminal, cleaved
For the molecule B3, the Kd was 82.5 ± 9.9 µM.

B4: USP7 catalytic domain (residues 207-560) L373F (domain or fragment, human, UniProt Q93009 207-560, looked up)
chain: SKKHTGYVGLKNQGATCYMNSLLQTLFFTNQLRKAVYMMPTEGDDSSKSVPLALQRVFYELQHSDKPVGTKKLTKSFGWETLDSFMQHDVQELCRVLLDNVENKMKGTCVEGTIPKLFRGKMVSYIQCKEVDYRSDRREDYYDIQLSIKGKKNIFESFVDYVAVEQFDGDNKYDAGEHGLQEAEKGVKFLTLPPVLHLQLMRFMYDPQTDQNIKINDRFEFPEQLPLDEFLQKTDPKDPANYILHAVLVHSGDNHGGHYVVYLNPKGDGKWCKFDDDVVSRCTKEEAIEHNYGGHDDDLSVRHCTNAYMLVYIRESKLSEVLQAVTDHDIPQQLVERLQEEKRIEAQKRKERQE
modifications: 15N-labeled
notes: patient-derived variant; also called 15N USP7 (L373F); L373F USP7 catalytic domain; source: E. coli BL21 (DE3), M9 minimal media with 15NH4Cl, purified (TALON cobalt resin, thrombin cleavage, SEC); not shown: His6, N-terminal, cleaved
Regarding B4, the Kd stood at 108 ± 29.8 µM.

B5: USP7 catalytic domain (residues 207-560) K420E (domain or fragment, human, UniProt Q93009 207-560, looked up)
chain: SKKHTGYVGLKNQGATCYMNSLLQTLFFTNQLRKAVYMMPTEGDDSSKSVPLALQRVFYELQHSDKPVGTKKLTKSFGWETLDSFMQHDVQELCRVLLDNVENKMKGTCVEGTIPKLFRGKMVSYIQCKEVDYRSDRREDYYDIQLSIKGKKNIFESFVDYVAVEQLDGDNKYDAGEHGLQEAEKGVKFLTLPPVLHLQLMRFMYDPQTDQNIEINDRFEFPEQLPLDEFLQKTDPKDPANYILHAVLVHSGDNHGGHYVVYLNPKGDGKWCKFDDDVVSRCTKEEAIEHNYGGHDDDLSVRHCTNAYMLVYIRESKLSEVLQAVTDHDIPQQLVERLQEEKRIEAQKRKERQE
modifications: 15N-labeled
notes: patient-derived variant; also called 15N USP7 (K420E); K420E USP7 catalytic domain; source: E. coli BL21 (DE3), M9 minimal media with 15NH4Cl, purified (TALON cobalt resin, thrombin cleavage, SEC); not shown: His6, N-terminal, cleaved
Turning to B5, the Kd stood at 114 ± 8.8 µM.

B6: USP7 catalytic domain (residues 207-560) V485G (domain or fragment, human, UniProt Q93009 207-560, looked up)
chain: SKKHTGYVGLKNQGATCYMNSLLQTLFFTNQLRKAVYMMPTEGDDSSKSVPLALQRVFYELQHSDKPVGTKKLTKSFGWETLDSFMQHDVQELCRVLLDNVENKMKGTCVEGTIPKLFRGKMVSYIQCKEVDYRSDRREDYYDIQLSIKGKKNIFESFVDYVAVEQLDGDNKYDAGEHGLQEAEKGVKFLTLPPVLHLQLMRFMYDPQTDQNIKINDRFEFPEQLPLDEFLQKTDPKDPANYILHAVLVHSGDNHGGHYVVYLNPKGDGKWCKFDDDVGSRCTKEEAIEHNYGGHDDDLSVRHCTNAYMLVYIRESKLSEVLQAVTDHDIPQQLVERLQEEKRIEAQKRKERQE
modifications: 15N-labeled
notes: patient-derived variant; also called 15N USP7 (V485G); V485G USP7 catalytic domain; source: E. coli BL21 (DE3), M9 minimal media with 15NH4Cl, purified (TALON cobalt resin, thrombin cleavage, SEC); not shown: His6, N-terminal, cleaved
Consider B6, for which the dissociation constant Kd worked out at 171 ± 22.6 µM.
